{"source": "paper PMC8837617", "biological_target": "MAPK ERK2 (human), P28482", "sequence (P28482 whole entry)": "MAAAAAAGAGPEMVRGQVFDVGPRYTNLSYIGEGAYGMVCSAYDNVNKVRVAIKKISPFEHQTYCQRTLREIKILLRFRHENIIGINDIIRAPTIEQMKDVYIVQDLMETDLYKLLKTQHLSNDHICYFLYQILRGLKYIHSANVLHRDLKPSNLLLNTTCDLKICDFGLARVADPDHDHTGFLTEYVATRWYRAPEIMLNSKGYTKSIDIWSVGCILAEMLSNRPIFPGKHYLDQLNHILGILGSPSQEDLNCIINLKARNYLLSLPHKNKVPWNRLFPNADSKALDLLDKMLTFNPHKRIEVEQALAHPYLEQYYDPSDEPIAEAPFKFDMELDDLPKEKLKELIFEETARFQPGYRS", "assay": "FP", "conditions": "modification not given", "data": [{"binder": "QGKRKALKLNFANP", "note": "[MKK4]", "values": [{"measurement": "Ki", "result": 431, "unit": "µM"}]}, {"binder": "SKGKKRNPGLKIPK", "note": "[MKK6]", "values": [{"measurement": "Ki", "result": 65, "unit": "µM"}]}]}
